Legend:
Test in all cases: ITC
[1] = molecular target: Mus musculus core RBPJ, residues 53-474 (Mus musculus, UniProt P31266 53-474)
RBPJ (53-474) F261A = RBPJ (53-474) F261A (Mus musculus, UniProt P31266 53-474, F261A)
RBPJ (53-474) A284V = RBPJ (53-474) A284V (Mus musculus, UniProt P31266 53-474, A284V)
RBPJ (53-474) L388A = RBPJ (53-474) L388A (Mus musculus, UniProt P31266 53-474, L388A)
Sequence of RBPJ (53-474) L388A (P31266 53-474 L388A): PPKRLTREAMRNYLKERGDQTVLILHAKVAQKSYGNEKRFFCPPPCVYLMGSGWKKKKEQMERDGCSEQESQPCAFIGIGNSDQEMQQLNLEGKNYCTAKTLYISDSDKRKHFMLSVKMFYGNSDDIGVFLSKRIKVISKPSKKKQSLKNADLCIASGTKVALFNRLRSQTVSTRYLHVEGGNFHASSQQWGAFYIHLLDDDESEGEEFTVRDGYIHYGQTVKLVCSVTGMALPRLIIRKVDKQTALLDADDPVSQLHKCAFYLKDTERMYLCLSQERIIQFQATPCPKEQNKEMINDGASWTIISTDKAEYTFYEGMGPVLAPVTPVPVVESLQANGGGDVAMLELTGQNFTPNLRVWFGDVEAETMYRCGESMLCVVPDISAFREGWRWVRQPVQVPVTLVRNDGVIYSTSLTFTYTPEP

Sequence of Mus musculus core RBPJ, residues 53-474 (P31266 53-474): as the sequence (P31266 53-474 L388A) above, with A336L counted along it
Sequence of RBPJ (53-474) F261A (P31266 53-474 F261A): as the sequence (P31266 53-474 L388A) above, with F209A, A336L counted along it
Sequence of RBPJ (53-474) A284V (P31266 53-474 A284V): as the sequence (P31266 53-474 L388A) above, with A232V, A336L counted along it

B1: SMT3-SHARP, residues 2776-2833 (RBPJ-interacting region) (domain or fragment, UniProt Q96T58 2802-2859, looked up)
chain: SGAGLRVNTSEGVVLLSYSGQKTEGPQRISAKISQIPPASAMDIEFQQSVSKSQVKPD
[1]
  Kd: ~5 nM
  stoichiometry N: 1
RBPJ (53-474) F261A
  fold reduction in binding against native RBPJ: ~45 fold
RBPJ (53-474) A284V
  fold reduction in binding against native RBPJ: ~50 fold
RBPJ (53-474) L388A
  fold reduction in binding against native RBPJ: ~70 fold

B2: SMT3-SHARP (2776-2833) K2807A (domain or fragment, UniProt Q96T58 2802-2859, looked up)
chain: SGAGLRVNTSEGVVLLSYSGQKTEGPQRISAAISQIPPASAMDIEFQQSVSKSQVKPD
[1]
  fold reduction in binding against native SHARP: ~6 fold

B3: SMT3-SHARP (2776-2833) I2811A (domain or fragment, UniProt Q96T58 2802-2859, looked up)
chain: SGAGLRVNTSEGVVLLSYSGQKTEGPQRISAKISQAPPASAMDIEFQQSVSKSQVKPD
[1]
  fold reduction in binding against native SHARP: > 60 fold

B4: SMT3-SHARP (2776-2833) V2789A (domain or fragment, UniProt Q96T58 2802-2859, looked up)
chain: SGAGLRVNTSEGVALLSYSGQKTEGPQRISAKISQIPPASAMDIEFQQSVSKSQVKPD
[1]
  fold reduction in binding against native SHARP: > 10 fold

B5: SMT3-SHARP (2776-2833) L2791A (domain or fragment, UniProt Q96T58 2802-2859, looked up)
chain: SGAGLRVNTSEGVVLASYSGQKTEGPQRISAKISQIPPASAMDIEFQQSVSKSQVKPD
[1]
  fold decrease in binding against native SHARP: > 350 fold

B6: SMT3-SHARP (2776-2833) Y2793A (domain or fragment, UniProt Q96T58 2802-2859, looked up)
chain: SGAGLRVNTSEGVVLLSASGQKTEGPQRISAKISQIPPASAMDIEFQQSVSKSQVKPD
[1]
  fold reduction in binding against native SHARP: > 20 fold

Source: doi:10.1101/273615 (bioRxiv, 2018)
